Measurements: US20170306033A1 (Amgen, published 2017)
Numbering of substitutions follows the chain as printed.

T1: human PAC1 receptor (human, UniProt P41586 21-468)
T1 sequence: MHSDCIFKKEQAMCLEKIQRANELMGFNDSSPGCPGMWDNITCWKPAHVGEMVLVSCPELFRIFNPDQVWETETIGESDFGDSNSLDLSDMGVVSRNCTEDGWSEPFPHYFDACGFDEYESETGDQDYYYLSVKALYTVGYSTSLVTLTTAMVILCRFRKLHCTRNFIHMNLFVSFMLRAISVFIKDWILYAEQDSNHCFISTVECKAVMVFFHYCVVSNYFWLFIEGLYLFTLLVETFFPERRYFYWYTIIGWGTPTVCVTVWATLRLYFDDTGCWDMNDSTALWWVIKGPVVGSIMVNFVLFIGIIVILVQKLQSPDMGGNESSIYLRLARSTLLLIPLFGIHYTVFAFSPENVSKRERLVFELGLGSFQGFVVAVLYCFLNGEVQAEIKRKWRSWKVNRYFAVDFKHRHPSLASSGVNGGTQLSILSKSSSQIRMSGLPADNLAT

B1: iPS:327287 (bispecific antibody, human IgG1, kappa, lambda, N297G)
light 1: EIVLTQSPATLSLSPGERATLSCRASQSVGRSLHWYQQKPGQAPRLLIKYASQSLSGIPARFSGSGSGTDFTLTISSLEPEDFAVYYCHQSSRLPFTFGEGTKVDIKRTVAAPSVFIFPPSDEQLKSGTASVVCLLNNFYPREAKVQWKVDNALQSGNSQESVTEQDSKDSTYSLESTLTLSKADYEKHKVYACEVTHQGLSSPVTKSFNRGEC
heavy 1: not shown
light 2: QSVLTQPPSVSAAPGQKVTISCSGSSSNIGNNYVSWYQQLPGTAPKLLIYDNNKRPSGIPDRFSGSKSGTSTTLGITGLQTGDEADYYCGTWDSRLSAVVFGKGTKLTVLGQPKANPTVTLFPPSSEELQANKATLVCLISDFYPGAVTVAWKADGSPVKAGVETTKPSKQSNNKYAAKSYLSLTPEQWKSHRSYSCQVTHEGSTVEKTVAPTECS
heavy 2: QVQLVESGGGVVQPGRSLRLSCAASGFTFSSFGMHWVRQAPGKELEWVAVISFDGSIKYSVDSVKGRFTISRDNSKNTLFLQMNSLRAEDTAVYYCARDRLNYYDSSGYYHYKYYGMAVWGQGTTVTVSSASTKGPSVFPLAPSSKSTSGGTAALGCLVKDYFPEPVTVSWNSGALTSGVHTFPAVLQSSGLYSLESVVTVPSSSLGTQTYICNVNHKPSNTKVDKKVEPKSCDKTHTCPPCPAPELLGGPSVFLFPPKPKDTLMISRTPEVTCVVVDVSHEDPEVKFNWYVDGVEVHNAKTKPCEEQYGSTYRCVSVLTVLHQDWLNGKEYKCKVSNKALPAPIEKTISKAKGQPREPQVYTLPPSRKEMTKNQVSLTCLVKGFYPSDIAVEWESNGQPENNYKTTPPVLKSDGSFFLYSKLTVDKSRWQQGNVFSCSVMHEALHNHYTQKSLSLSPGK
B2: iPS:327288 (bispecific antibody, human IgG1, kappa, lambda, N297G)
light 1: not shown
heavy 1: not shown
light 2: B1 light 2 with K103G
heavy 2: B1 heavy 2 with E44G, E370K
B3: iPS:327679 (bispecific antibody, human IgG1, kappa, N297G)
light 1: DIQLTQSPSFLSASVGDRVTITCRASQSIGRSLHWYQQKPGKAPKLLIKYASQSLSGVPSRFSGSGSGTEFTLTISSLQPEDFATYYCHQSSRLPFTFGPGTKVDIKRTVAAPSVFIFPPSDEQLKSGTASVVCLLNNFYPREAKVQWKVDNALQSGNSQESVTEQDSKDSTYSLESTLTLSKADYEKHKVYACEVTHQGLSSPVTKSFNRGEC
heavy 1: not shown
light 2: EIVLTQSPGTLSLSPGERATLSCRASQSVSSGYLTWYQQKPGQAPRLLIYGASSRATGIPDRFSGSGSGTDFTLTISRLEPEDFAVYYCQQYGNSLSRFGQGTKLEIKRTVAAPSVFIFPPSDEQLKSGTASVVCLLNNFYPREAKVQWKVDNALQSGNSQESVTEQDSKDSTYSLKSTLTLSKADYEKHKVYACEVTHQGLSSPVTKSFNRGEC
heavy 2: not shown
B4: iPS:327289 (bispecific antibody, human IgG1, kappa, lambda, N297G)
light 1: not shown
heavy 1: not shown
light 2: B1 light 2 with K103G
heavy 2: B1 heavy 2 with E44G, E370K
B5: iPS:327680 (bispecific antibody, human IgG1, kappa, N297G)
light 1: B1 light 1 with E100P
heavy 1: not shown
light 2: B3 light 2
heavy 2: not shown
B6: iPS:327290 (bispecific antibody, human IgG1, kappa, lambda, N297G)
light 1: B3 light 1
heavy 1: not shown
light 2: B1 light 2 with K103G
heavy 2: B1 heavy 2 with E44G, E370K
B7: iPS:326631 (bispecific antibody, human IgG2, kappa, lambda)
light 1: not shown
heavy 1: QVQLQQSGPGLVKPSQTLSLTCAISGDSVSSNSATWNWIRQSPSRGLEWLGRTYYRSKWSNHYAVSVKSRITINPDTSKSQFSLQLNSVTPEDTAVYYCARGTWKQLWFLDHWGQGTLVTVSSASTKGPSVFPLAPCSRSTSESTAALGCLVKDYFPEPVTVSWNSGALTSGVHTFPAVLQSSGLYSLKSVVTVPSSNFGTQTYTCNVDHKPSNTKVDKTVERKCCVECPPCPAPPVAGPSVFLFPPKPKDTLMISRTPEVTCVVVDVSHEDPEVQFNWYVDGVEVHNAKTKPREEQFNSTFRVVSVLTVVHQDWLNGKEYKCKVSNKGLPAPIEKTISKTKGQPREPQVYTLPPSREEMTKNQVSLTCLVDGFYPSDIAVEWESNGQPENNYDTTPPMLDSDGSFFLYSDLTVDKSRWQQGNVFSCSVMHEALHNHYTQKSLSLSPGK
light 2: not shown
heavy 2: not shown
B8: iPS:327681 (bispecific antibody, human IgG1, kappa, N297G)
light 1: DIQMTQSPSSLSASVGDRITITCRASQSISRYLNWYQQKPGKAPKLLIYAASSLQSGIPSRFSGSGSGTDFTLTINSLQPEDFATYFCQQSYSPPFTFGEGTKVDIKRTVAAPSVFIFPPSDEQLKSGTASVVCLLNNFYPREAKVQWKVDNALQSGNSQESVTEQDSKDSTYSLESTLTLSKADYEKHKVYACEVTHQGLSSPVTKSFNRGEC
heavy 1: not shown
light 2: B3 light 2 with Q101K
heavy 2: QVQLVESGGGVVQPGRSLRLSCAASGFTFSSYGMHWVRQAPGKELEWVAVIWYDGSNKYYAESVKGRFIISRDKSKNTLYLQMNSLRAEDTAVYYCARAGGIAAAGLYYYYGMDVWGQGTTVTVSSASTKGPSVFPLAPSSKSTSGGTAALGCLVKDYFPEPVTVSWNSGALTSGVHTFPAVLQSSGLYSLESVVTVPSSSLGTQTYICNVNHKPSNTKVDKKVEPKSCDKTHTCPPCPAPELLGGPSVFLFPPKPKDTLMISRTPEVTCVVVDVSHEDPEVKFNWYVDGVEVHNAKTKPCEEQYGSTYRCVSVLTVLHQDWLNGKEYKCKVSNKALPAPIEKTISKAKGQPREPQVYTLPPSRKEMTKNQVSLTCLVKGFYPSDIAVEWESNGQPENNYKTTPPVLKSDGSFFLYSKLTVDKSRWQQGNVFSCSVMHEALHNHYTQKSLSLSPGK

molecular target: human CGRP receptor (human, UniProt Q16602 23-461; O60894 27-148); assay: cell-based or functional assay
Sequence (Q16602 23-461 limits assumed, chain 1 of 2): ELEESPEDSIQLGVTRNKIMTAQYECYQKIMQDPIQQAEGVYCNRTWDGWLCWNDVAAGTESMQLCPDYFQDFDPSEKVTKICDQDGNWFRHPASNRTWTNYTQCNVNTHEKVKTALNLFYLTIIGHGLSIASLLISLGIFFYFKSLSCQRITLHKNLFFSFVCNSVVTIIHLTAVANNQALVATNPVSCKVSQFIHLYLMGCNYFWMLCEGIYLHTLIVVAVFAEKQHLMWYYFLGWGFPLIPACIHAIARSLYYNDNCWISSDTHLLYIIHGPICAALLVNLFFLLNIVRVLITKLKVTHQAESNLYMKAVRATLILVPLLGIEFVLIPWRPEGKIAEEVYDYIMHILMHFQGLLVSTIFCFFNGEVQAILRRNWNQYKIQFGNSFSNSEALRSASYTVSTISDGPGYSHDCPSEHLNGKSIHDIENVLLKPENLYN
Sequence (O60894 27-148 limits assumed, chain 2 of 2): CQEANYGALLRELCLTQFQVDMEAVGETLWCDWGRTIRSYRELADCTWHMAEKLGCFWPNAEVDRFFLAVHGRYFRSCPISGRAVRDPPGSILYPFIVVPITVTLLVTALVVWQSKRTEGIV

B1 was tested. Which “% inhibition of human CGRPR” value did it give?
Its value is 86%.

With B2 as the binder, how does the “% inhibition of human CGRPR” value read?
Its value is 67%.

With B3 as the binder, how does the “% inhibition of human CGRPR” value read?
The value was 86%.

How did the “% inhibition of human CGRPR” value turn out when B4 was run?
Its value is 72%.

How did the “% inhibition of human CGRPR” value turn out when B5 was run?
Its value is 88%.

How did the “% inhibition of human CGRPR” value turn out when B6 was run?
The value was 70%.

With B7 as the binder, how does the “% inhibition of human CGRPR” value read?
The value was 89%.

B8 was tested. Which “% inhibition of human CGRPR” value did it give?
Its value is 72%.

molecular target: T1, human PAC1 receptor; assay: cell-based or functional assay

For B1, which “% inhibition of human PAC1” value is on record?
The value was 71%.

Which “% inhibition of human PAC1” value does the source give for B2 here?
Its value is 88%.

With B3 as the binder, how does the “% inhibition of human PAC1” value read?
Its value is 23%.

Which “% inhibition of human PAC1” value does the source give for B4 here?
The value was 75%.

How did the “% inhibition of human PAC1” value turn out when B5 was run?
The value was 92%.

With B6 as the binder, how does the “% inhibition of human PAC1” value read?
The value was 60%.

For B7, which “% inhibition of human PAC1” value is on record?
Its value is 79%.

How did the “% inhibition of human PAC1” value turn out when B8 was run?
The value was 73%.
